# In US11549134B2, “Modified amadoriase and method for producing the same, agent for improving surfactant resistance of amadoriase and composition for measuring HbA1c using the same” (Kikkoman Corporation, priority 2013, dated 2023):
# Columns and labels:
# Assay type in all cases: biochemical
# [1] = Measurement of fructosyl peptide sample (αFVH) under mixing of CTAC, change in absorbance at 751 nm
# Description: The purified enzyme of CFP-T7 and CFP-D7 obtained in Example 3-2 was used to measure a sample as shown below. The activity values of CFP-T7 and CFP-D7 were determined using (reagent 1) adjusted to pH 7.0 with αFVH at a final concentration of 5 mM as a substrate according to the method for measuring amadoriase activity.
# (Reagent 4) αFVH (125 mg) was dissolved in ion-exchanged water, the volume of the solution was fixed to 10 ml, and thereby a 30 mM substrate solution was obtained. In addition, the resultant was diluted by 1/714 with a CTAC solution to provide a 42 μM αFVH/0% to 0.2% CTAC solution.
# (Reagent 6) (50 μl) was added to a mixed solution of 135 μl of (reagent 5) warmed at 37° C. for 5 minutes in advance and 25 μl of the sample prepared in (11) above to start reaction, and absorbance at a wavelength of 751 nm after reaction at 37° C. for 5 minutes was measured using an automated analyzer, Bio Majesty JCA-BM1650 (from JEOL Ltd.). Absorbance (reagent blank) at a wavelength of 751 nm measured by a similar operation for (reagent 4) prepared using ion-exchanged water in place of the substrate solution was used as a control to calculate the amount of change in absorbance (difference) when each sample was measured, using the following equation. The final concentration of a colorimetric substrate, DA-64, was 0.15 mM; the final concentration of αFVH in the case of the presence of a substrate was 5 μM; and the length (optical path) of the cell used for absorbance measurement was 1 cm. Amount of change in absorbance=ΔAes−Ae0
# The amount of change in absorbance when αFVH/0% to 0.2% CTAC were used as samples was calculated.
# The purified preparations of amadoriases obtained as described above were used as samples to measure αFVH under the mixing of CTAC using PnFX and NvFX as in Example 5.
# [2] = Surfactant resistance (residual activity) of purified enzymes with various surfactants; conditions: 20 mM potassium phosphate pH 7.0, purified enzyme
# Description: (§1) An amadoriase crude enzyme solution or an amadoriase purified sample is diluted with a 30 mM MES/21 mM Tris buffer solution (pH6.5) so as to have a concentration of about 1.0 U/ml. To this, CTAC (for example, manufactured by Tokyo Kasei Kogyo Co., Ltd.) is added so as to obtain a final concentration 0.01% (w/v) or 0.04%. The resultant mixture is heated at 30° C. for 5 minutes. After heating, the mixture is diluted double with a 10 mM phosphate buffer (pH7.0) containing 0.15% BSA to prepare a sample. The enzyme activities of the sample before and after a surfactant treatment are measured by the method described in Section B above. The ratio of activity of the sample after the surfactant treatment relative to the activity of the sample before the surfactant treatment (regarded as 100), i.e., the residual activity (%), is obtained. In this manner, surfactant resistance is evaluated.
# Using various surfactants, the stability of the purified enzymes CFP-T7, CFP-D2, and CFP-D7 obtained as described above was evaluated. The surfactant resistance of the modified amadoriases was evaluated in accordance with a measurement method for surfactant resistance according to Example 1 although under surfactant treatment conditions in which the amadoriases were each diluted in a 20 mM potassium phosphate buffer solution (pH 7.0) and mixed with any of various concentrations of the surfactants. In this respect, it was confirmed that when the warmed sample was again measured for activity 30 minutes after 2-fold dilution in a BSA solution, there was no change in the activity value.
# [3] = Surfactant resistance (residual activity) of CFP-D multiple variants, 0.04% CTAC; conditions: 30°C, 5 minutes, crude enzyme
# Description: as §1, with “evaluated. […]” for “evaluated.”
molecule,measurement,setting,value
"CFP-T7: amadoriase derived from the genus Coniochaeta, SEQ ID NO: 1; triple variant with mutations at positions 272, 302 and 388 (protein, listed as Coniochaeta sp.) MTSNRADTRVIVVGGGGTIGSSTALHLVRSGYAPANITVLDTFEIPSAQSAGHDLNKIMGIRLRNKVDLQMSLEARQMWKEDELFQPFFHNTGRMDCEHTPEGIEDLKKQYQALHDAGAGLEKTHAWLDNEDEILSKMPLLQRDQIQGWKAIWSQDGGWLAAAKAINAIGQFLKERGVKFGFGGAGSFKQPLFDDEGTTCIGVETADGTKYYADKVVLAAGAWSPTLVDLEDQCCSKAWVYAHIQLTPEEAAEYKGVPVVYNGEFGFFFEPDEFGVIKVCDEFPGFSRFKEHQPYGAPSPKRISVPRSHAKHPTDTYPDASEVSIKKAIATFLPRFQDKELFNRALCWCTDTADAALLMCEHPKWKNFILATGDSGHSFKILPNVGKYVVELIEGRLPEEMAYQWRWRPGGDALKSRRAAPPKDLADMPGWKHDPKL",Amount of Change in Absorbance at Wavelength of 751 nm under Mixing of Each Concentration of CTAC,"[1]; Mixing of CTAC 0%, as in Example 5, Table 7",0.150
same,Amount of Change in Absorbance at Wavelength of 751 nm under Mixing of Each Concentration of CTAC,"[1]; Mixing of CTAC 0%, αFVH final 5 μM, 37°C, 5 minutes, Table 5",0.150
same,Amount of Change in Absorbance at Wavelength of 751 nm under Mixing of Each Concentration of CTAC,"[1]; Mixing of CTAC 0.005%, αFVH final 5 μM, 37°C, 5 minutes, Table 5",0.111
same,Amount of Change in Absorbance at Wavelength of 751 nm under Mixing of Each Concentration of CTAC,"[1]; Mixing of CTAC 0.01%, as in Example 5, Table 7",0.077
same,Amount of Change in Absorbance at Wavelength of 751 nm under Mixing of Each Concentration of CTAC,"[1]; Mixing of CTAC 0.01%, αFVH final 5 μM, 37°C, 5 minutes, Table 5",0.077
same,Amount of Change in Absorbance at Wavelength of 751 nm under Mixing of Each Concentration of CTAC,"[1]; Mixing of CTAC 0.02%, as in Example 5, Table 7",0.031
same,Amount of Change in Absorbance at Wavelength of 751 nm under Mixing of Each Concentration of CTAC,"[1]; Mixing of CTAC 0.02%, αFVH final 5 μM, 37°C, 5 minutes, Table 5",0.031
same,Amount of Change in Absorbance at Wavelength of 751 nm under Mixing of Each Concentration of CTAC,"[1]; Mixing of CTAC 0.04%, as in Example 5, Table 7",0.005
same,Amount of Change in Absorbance at Wavelength of 751 nm under Mixing of Each Concentration of CTAC,"[1]; Mixing of CTAC 0.04%, αFVH final 5 μM, 37°C, 5 minutes, Table 5",0.005
same,Residual Activity(%),[2]; Benzylcetyldimethyl ammonium Chloride (BCDAC) 0.04%,1.4%
same,Residual Activity(%),[2]; Benzyldodecyldimethyl ammonium Bromide (BDDAB) 0.10%,1.4%
same,Residual Activity(%),[2]; Benzyltetradecyldimethyl ammonium Chloride (BDTAC) 0.04%,0.7%
same,Residual Activity(%),[2]; Dodecylpyridinium Chloride (1-DPC) 0.16%,3.4%
same,Residual Activity(%),[2]; Dodecyltrimethylammonium Bromide (DTAB) 0.30%,12.2%
same,Residual Activity(%),[2]; Hexadecylpyridinium Bromide (1-CPB) 0.04%,0.7%
same,Residual Activity(%),[2]; Hexadecylpyridinium Chloride (1-CPC) 0.04%,1.4%
same,Residual Activity(%),[2]; Hexadecyltrimethylammonium Chloride (CTAC) 0.04%,2.3%
same,Residual Activity(%),[2]; N-Cetyl-4-methylpyridinium Chloride (4Me-1-CPC) 0.04%,1.5%
same,Residual Activity(%),[2]; Octadecyltrimethylammonium Bromide (STAB) 0.01%,59.7%
same,Residual Activity(%),[2]; Octadecyltrimethylammonium Chloride (STAC) 0.02%,49.3%
same,Residual Activity(%),[2]; Octyltrimethylammonium Bromide (OTAB) 0.80%,87.7%
same,Residual Activity(%),[2]; Octyltrimethylammonium Chloride (OTAC) 1.20%,94.1%
same,Residual Activity(%),[2]; Tetradecyltrimethylammonium Bromide (TTAB) 0.04%,31.7%
same,Residual Activity(%),[2]; Tetradecyltrimethylammonium Chloride (TTAC) 0.04%,4.1%
same,Residual Activity(%),[2]; Tributylhexadecyl phosphonium Bromide (TBCPB) 0.04%,3.1%
same,Residual Activity(%),[3],2.27%
